The record followed here is US20230235040A1 (ALMIRALL S A, published 2023).

For experiment [1], the target named is T1, hu-IL-36α-Avi (in-vivo biotinylated) (human, site-specifically biotinylated in vivo on the C-terminal AviTag (BirA)).
T1 construct: also called biotinylated human IL-36α-Avi
T1 chain: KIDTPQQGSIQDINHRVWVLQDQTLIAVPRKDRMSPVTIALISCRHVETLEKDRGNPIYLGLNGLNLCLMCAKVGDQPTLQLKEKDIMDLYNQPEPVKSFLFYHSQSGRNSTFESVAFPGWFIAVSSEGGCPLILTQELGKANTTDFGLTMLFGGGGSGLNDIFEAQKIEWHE
Kind of experiment: SPR (Biacore 8K), in-vivo biotinylated IL-36-Avi captured on CAP chip, bispecific IgG injected, 37°C. The procedure:
(§1) Surface plasmon resonance (SPR) analysis was used to determine the binding affinity for human and cynomolgus monkey IL-36 (“hu-IL-36” and “cy-IL-36,” respectively) using a BIACORE™ 8K instrument as described in Example 2. […] Briefly, a 1:4 dilution of Biotin CAPture Reagent (GE Healthcare) into HBS-EP buffer (0.01 M HEPES pH 7.4, 0.15 M NaCl, 3 mM EDTA, 0.005% Surfactant P20) was applied to a CAP sensor chip at 2 μL/min flow rate. For kinetics measurements, 1 nM biotinylated human and cyno IL-36α-Avi, IL-36γ-Avi; 0.8 nM biotinylated human and cyno IL-36β-Avi were captured at 10 μL/min to achieve 15-25 response units in the second flow cell (FC2). FC1 was kept as a reference. […] The sensorgram was recorded and subject to reference and buffer subtraction before data analysis with the BIACORE® 8K Evaluation Software (version 1.1.1.7442). […] Association rates (kₒₙ) and dissociation rates (koff) were calculated using a simple one-to-one Langmuir binding model. The equilibrium dissociation constant (KD) was calculated as the ratio of koff/kₒₙ.

Experiment [2] addresses T2, cy-IL-36β-Avi (in-vivo biotinylated) (cynomolgus monkey, site-specifically biotinylated in vivo on the C-terminal AviTag (BirA)).
T2 construct: also called cy-IL-36J-Avi [sic]; biotinylated cyno IL-36β-Avi
T2 chain: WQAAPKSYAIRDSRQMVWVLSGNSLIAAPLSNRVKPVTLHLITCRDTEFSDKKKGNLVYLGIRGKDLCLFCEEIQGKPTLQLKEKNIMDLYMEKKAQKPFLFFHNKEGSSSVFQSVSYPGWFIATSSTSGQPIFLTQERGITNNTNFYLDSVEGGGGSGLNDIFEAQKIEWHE
Described as above. The procedure:
as §1

The target in experiment [3] is T3, hu-IL-36β-Avi (in-vivo biotinylated) (human, site-specifically biotinylated in vivo on the C-terminal AviTag (BirA)).
T3 construct: also called biotinylated human IL-36β-Avi
T3 chain: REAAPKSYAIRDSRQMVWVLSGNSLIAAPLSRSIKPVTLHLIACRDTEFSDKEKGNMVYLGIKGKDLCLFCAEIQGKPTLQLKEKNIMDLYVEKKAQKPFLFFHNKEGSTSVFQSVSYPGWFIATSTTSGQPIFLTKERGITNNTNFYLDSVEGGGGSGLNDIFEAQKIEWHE
The description is as above. Here is the method:
as §1

The target of experiment [4] is T4, cy-IL-36γ-Avi (in-vivo biotinylated) (cynomolgus monkey, limits assumed, site-specifically biotinylated in vivo on the C-terminal AviTag (BirA)).
T4 construct: also called biotinylated cyno IL-36γ-Avi
T4 chain: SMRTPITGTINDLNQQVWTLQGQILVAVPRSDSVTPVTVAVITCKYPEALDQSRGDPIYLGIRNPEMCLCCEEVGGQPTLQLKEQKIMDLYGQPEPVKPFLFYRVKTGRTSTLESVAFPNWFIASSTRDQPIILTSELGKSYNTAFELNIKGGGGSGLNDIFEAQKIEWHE
The experiment is described as above. The procedure:
as §1

Experiment [5] deals with T5, hu-IL-36γ (human IL-36γ, N-terminally truncated active form S18-D169) (human, UniProt Q9NZH8 18-169).
T5 sequence: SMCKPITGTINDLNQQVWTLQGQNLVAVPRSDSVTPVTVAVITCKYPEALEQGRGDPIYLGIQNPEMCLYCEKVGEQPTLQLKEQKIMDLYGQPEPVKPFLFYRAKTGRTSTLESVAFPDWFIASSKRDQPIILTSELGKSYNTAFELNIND
Kind of experiment: cell-based or functional assay.

Experiment [6] concerns the target T6, hu-IL-36β (human IL-36β, N-terminally truncated active form R5-E157) (human).
T6 chain: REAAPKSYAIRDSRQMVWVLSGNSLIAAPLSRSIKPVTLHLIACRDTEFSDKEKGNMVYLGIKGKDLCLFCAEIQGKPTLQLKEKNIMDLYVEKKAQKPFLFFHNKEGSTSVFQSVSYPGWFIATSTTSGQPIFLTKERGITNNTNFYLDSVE
The experiment is described as follows: cell-based or functional assay.

For experiment [7], the target named is T7, hu-IL-36α (human IL-36α, N-terminally truncated active form K6-F158) (human, UniProt Q9UHA7 6-158).
T7 sequence: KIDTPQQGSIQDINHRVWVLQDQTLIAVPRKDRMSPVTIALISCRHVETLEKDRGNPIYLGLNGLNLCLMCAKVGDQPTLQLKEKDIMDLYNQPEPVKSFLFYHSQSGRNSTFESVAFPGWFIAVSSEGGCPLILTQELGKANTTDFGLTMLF
The experiment is described as follows: cell-based or functional assay.

B1: mAb2.10/mAb6_2.7 multispecific common light chain antibody (IgG, knobs-into-holes, N297G) (bispecific antibody)
heavy 1: not shown
heavy 2: not shown
light: ESVLTQPPSVSGAPGQRVTISCTGSSSNIGAHYDVHWYQQLPGTAPKLLIYGNDNRPSGVPDRFSGSKSGTSASLAITGLQAEDEADYYCQSYDYSLSGYVFGGGTKLTVLGQPKAAPSVTLFPPSSEELQANKATLVCLISDFYPGAVTVAWKADSSPVKAGVETTTPSKQSNNKYAASSYLSLTPEQWKSHKSYSCQVTHEGSTVEKTVAPTECS
notes: tags removed; also called mAb2.10/mAb6_2.7 IgG; anti-IL-36 multispecific antibody
In experiment [1], B1 gave a Kd of 1.95 nM, a koff of 0.000434 s⁻¹ and a kon of 223000 M⁻¹ s⁻¹. In addition, in experiment [2], binding was characterised by a dissociation constant (Kd) of 2.51 nM, the koff was 0.000218 s⁻¹ and the on-rate constant (kon) stood at 86900 M⁻¹ s⁻¹. In addition, in experiment [3], the Kd was 1.84 nM, the koff was 0.000168 s⁻¹ and the kon was 91400 M⁻¹ s⁻¹. In experiment [4], this molecule had a Kd of 0.94 nM, a koff of 0.000148 s⁻¹ and a kon of 158000 M⁻¹ s⁻¹. For the same molecule, in experiment [5], the “% inhibition of IL-8 production in HEKa cells at 8 nM antibody” value was determined as 100%; the “% inhibition of IL-8 production in HaCat cells at 8 nM antibody” value was found to be 100%; the “IC50, IL-36-mediated IL-8 production in HaCat cells” value (“IC50 … in HaCat cells” for short) is around 1.1 nM; the “IC50, IL-36-mediated IL-8 production in primary human adult keratinocytes (HEKa)” value (from here on “IC50, IL-36-mediated IL-8 production … (HEKa)”) is around 2.7 nM. In experiment [6], the “% inhibition of IL-8 production in HEKa cells at 8 nM antibody” value stood at 100%; the “% inhibition of IL-8 production in HaCat cells at 8 nM antibody” value was 100%; the “IC50 … in HaCat cells” value was around 0.13 nM; the “IC50, IL-36-mediated IL-8 production … (HEKa)” value is around 0.11 nM. Moreover, in experiment [7], the “% inhibition of IL-8 production in HEKa cells at 8 nM antibody” value stood at 100%; the “% inhibition of IL-8 production in HaCat cells at 8 nM antibody” value came to 100%; the “IC50 … in HaCat cells” value is around 0.38 nM; the “IC50, IL-36-mediated IL-8 production … (HEKa)” value was around 0.56 nM.
